{"source": "paper PMC4676636", "about": "“Aptamers Binding to c-Met Inhibiting Tumor Cell Migration”", "binders": {"B1": {"name": "CLN3-T (SL1) (ssDNA)", "DNA": "GAAAAGTTATCAGGCTGGATGGTAGCTCGGTCGGGGTGGGTGGGTTGGCAAGTCTGATT"}, "B2": {"name": "CLN-F (XNA)", "DNA": "GGAGGGAAAAGTTATCAGGCCGCTAGTTACCAGGTGTAGCTGACCAAGCGGATGTGTGTTGATTAGTTTTGGAGTACTCGCTCC", "modifications": "2'-O-methyl purines and 2'-fluoro pyrimidines (mRfY)"}, "B3": {"name": "CLN-X (ssDNA)", "DNA": "GGAGGGAAAAGTTATCAGGCATGCGCTAGCCGATCGAATCCCGTAGACATTCCGATCGACGATTAGTTTTGGAGTACTCGCTCC"}}, "key": {"[1]": {"molecular_target": "T1, human c-Met-Fc (c-Met ectodomain, IgG1-Fc fusion) (Homo sapiens, UniProt P08581 25-932)", "T1 sequence (P08581 25-932)": "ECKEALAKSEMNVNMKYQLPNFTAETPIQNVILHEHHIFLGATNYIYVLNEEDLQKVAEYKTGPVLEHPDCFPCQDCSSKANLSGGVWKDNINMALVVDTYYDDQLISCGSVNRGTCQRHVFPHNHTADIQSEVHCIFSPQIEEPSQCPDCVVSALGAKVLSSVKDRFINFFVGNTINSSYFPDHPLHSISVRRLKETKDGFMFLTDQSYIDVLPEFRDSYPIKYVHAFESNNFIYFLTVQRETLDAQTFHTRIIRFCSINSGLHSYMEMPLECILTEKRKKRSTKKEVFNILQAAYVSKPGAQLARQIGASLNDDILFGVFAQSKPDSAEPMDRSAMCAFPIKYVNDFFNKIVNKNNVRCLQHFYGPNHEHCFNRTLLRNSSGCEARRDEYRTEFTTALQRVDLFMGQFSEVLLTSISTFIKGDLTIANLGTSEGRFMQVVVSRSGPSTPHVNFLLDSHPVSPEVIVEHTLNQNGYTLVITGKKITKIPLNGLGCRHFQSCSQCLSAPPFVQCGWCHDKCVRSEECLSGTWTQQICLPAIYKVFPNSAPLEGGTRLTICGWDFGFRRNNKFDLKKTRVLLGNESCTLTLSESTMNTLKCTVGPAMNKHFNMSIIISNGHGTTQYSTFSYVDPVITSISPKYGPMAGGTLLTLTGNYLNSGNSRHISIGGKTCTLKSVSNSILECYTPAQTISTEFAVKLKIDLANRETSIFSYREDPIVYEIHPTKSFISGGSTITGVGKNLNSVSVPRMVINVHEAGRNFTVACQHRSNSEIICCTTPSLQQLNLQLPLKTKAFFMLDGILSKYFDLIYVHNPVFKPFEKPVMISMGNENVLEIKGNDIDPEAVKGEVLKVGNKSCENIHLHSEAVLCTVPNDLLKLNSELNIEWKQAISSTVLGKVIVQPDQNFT", "test": "filter binding (dotblot); Dotblot: nitrocellulose filter, 37 C (competition, 30 min); BLI: DPBS, 37 C, Protein A tips, 1:1 fit; ELISA: PBS/1% BSA; flow cytometry: PBS/1% BSA, 4 C, 30 min", "conditions": "protein: recombinant; tags: Fc (IgG1); chain copies: 2; label: 32P (dotblot)"}, "[2]": {"molecular_target": "T1, human c-Met-Fc (c-Met ectodomain, …)", "test": "competition ELISA; competes with immobilized HGF; Fig 2 legend gives 72 nM; Dotblot: nitrocellulose filter, 37 C (competition, 30 min); BLI: DPBS, 37 C, Protein A tips, 1:1 fit; ELISA: PBS/1% BSA; flow cytometry: PBS/1% BSA, 4 C, 30 min", "conditions": "protein: recombinant; tags: Fc (IgG1); chain copies: 2; label: 32P (dotblot)"}, "[3]": {"molecular_target": "T1, human c-Met-Fc (c-Met ectodomain, …)", "test": "competition; vs 32P-CLN64-T; Dotblot: nitrocellulose filter, 37 C (competition, 30 min); BLI: DPBS, 37 C, Protein A tips, 1:1 fit; ELISA: PBS/1% BSA; flow cytometry: PBS/1% BSA, 4 C, 30 min", "conditions": "protein: recombinant; tags: Fc (IgG1); chain copies: 2; 3'-biotin (CLN-F-B, cells)"}, "[4]": {"molecular_target": "T1, human c-Met-Fc (c-Met ectodomain, …)", "test": "competition; vs 32P-CLN3-T; Dotblot: nitrocellulose filter, 37 C (competition, 30 min); BLI: DPBS, 37 C, Protein A tips, 1:1 fit; ELISA: PBS/1% BSA; flow cytometry: PBS/1% BSA, 4 C, 30 min", "conditions": "protein: recombinant; tags: Fc (IgG1); chain copies: 2"}}, "data": [{"binder": "B1", "values": [{"measurement": "Kd", "setting": "[1]", "result": 0.1, "unit": "nM"}, {"measurement": "IC50", "setting": "[2]", "result": 74, "unit": "nM"}]}, {"binder": "B2", "values": [{"measurement": "binding result", "setting": "[3]", "result": "no binding"}]}, {"binder": "B3", "values": [{"measurement": "binding result", "setting": "[4]", "result": "no binding"}]}]}
